Laboratory results from paper PMC7343156, “Purification and characterization of a novel medium-chain ribitol dehydrogenase from a lichen-associated bacterium Sphingomonas sp” (PLoS ONE, 2020).

Tests used:
[1] = substrate: OC[C@@H](O)[C@@H](O)[C@@H](O)CO; assay: purified protein; format: biochemical, Sphingomonas sp. PAMC 26621; settings: 10-160 mM D-ribitol, NAD+ 0.05-1 mM, 100 mM potassium phosphate pH 8.0, 25°C, no added metal
[2] = substrate: NC(=O)c1ccc[n+]([C@@H]2O[C@H](COP(=O)(O)OP(=O)(O)OC[C@H]3O[C@@H](n4cnc5c(N)ncnc54)[C@H](O)[C@@H]3O)[C@@H](O)[C@H]2O)c1; assay: purified protein; format: biochemical, Sphingomonas sp. PAMC 26621; settings: 10-160 mM D-ribitol, NAD+ 0.05-1 mM, 100 mM potassium phosphate pH 8.0, 25°C, no added metal, varied: cofactor

B1: SpRDH (Sphingomonas sp. PAMC 26621) (protein)
chain: MTQKTMTAVVCHGPKDYRVEEIAHPTAGALEFVIRVTACGICASDCKCWSGAKMFWGDDPWVKAPVVPGHEFFGVVDELGEGAGEHFGVAVGDRVIAEQIVPCERCRYCRSGQYWMCEVHNIFGFQRLVADGGMAQFMRLPRTSRVHLIPAEIPDDDAVIIEPLACALHTVRRGTIGFEDVVVIAGAGPIGLMMVQAARLQTPRKLVVIDMVPERLALATTFGADVVINPATDDALAIVHGLTDGYGCDVYIEATGSPAGVVQGLNLIRRLGRFVEFSVFGSDTTVDWSIIGDRKELDVRGAHLGPYCYPIAIDLLSRGLITSNGIVTHRFPLIQWAEAIAVADSLESIKVVLSPST
notes: native enzyme purified from Sphingomonas sp; PAMC 26621 grown on D-ribitol; untagged; identified by MALDI-TOF/TOF
- Km [1]: 8.5 ± 1.2 mM
- kcat [1]: 29 ± 0.7 s⁻¹
- kcat/Km [1]: 3500 M⁻¹ s⁻¹
- Km [2]: 0.3 ± 0.02 mM
- kcat [2]: 29 ± 0.7 s⁻¹
